{"source": "patent US20200405833A1", "about": "(AFFIMED, published 2020)", "binders": {"B1": {"name": "EGFR/CD16A tandem diabody (bispecific antibody)", "chain": "QVQLQESGPGLVKPSETLSLTCTVSGGSVSSGSYYWSWIRQPPGKGLEWIGYIYYSGSTNYNPSLKSRVTISVDTSKNQFSLKLSSVTAADTAVYYCARNPISIPAFDIWGQGTMVTVSSGGSGGSGGSSYVLTQPSSVSVAPGQTATISCGGHNIGSKNVHWYQQRPGQSPVLVIYQDNKRPSGIPERFSGSNSGNTATLTISGTQAMDEADYYCQVWDNYSVLFGGGTKLTVLGGSGGSQVQLVQSGAEVKKPGESLKVSCKASGYTFTSYYMHWVRQAPGQGLEWMGIINPSGGSTSYAQKFQGRVTMTRDTSTSTVYMELSSLRSEDTAVYYCARGSAYYYDFADYWGQGTLVTVSSGGSGGSGGSQPVLTQPPSVSVAPGKTARITCGGNNIGSKSVHWYQQKPGQAPVLVIYYDSDRPSGIPERFSGSNSGNTATLTISRVEAGDEADYYCQVWDTSSDHVLFGGGTKLTVLAAAGSHHHHHH", "notes": "no Fc; also called Tandem diaody"}, "B2": {"name": "scFv-IgAb_02 (bispecific antibody)", "heavy": "QVQLVQSGAEVKKPGESLKVSCKASGYTFTSYYMHWVRQAPGQGLEWMGIINPSGGSTSYAQKFQGRVTMTRDTSTSTVYMELSSLRSEDTAVYYCARGSAYYYDFADYWGQGTLVTVSSASTKGPSVFPLAPSSKSTSGGTAALGCLVKDYFPEPVTVSWNSGALTSGVHTFPAVLQSSGLYSLSSVVTVPSSSLGTQTYICNVNHKPSNTKVDKKVEPKSCDKTHTCPPCPAPEFEGGPSVFLFPPKPKDTLMISRTPEVTCVVVAVSHEDPEVKFNWYVDGVEVHNAKTKPREEQYNSTYRVVSVLTVLHQDWLNGKEYKCKVSNKALPAPIEKTISKAKGQPREPQVYTLPPSREEMTKNQVSLTCLVKGFYPSDIAVEWESNGQPENNYKTTPPVLDSDGSFFLYSKLTVDKSRWQQGNVFSCSVMHEALHNHYTQKSLSLSPGGGGGSGGGGSQVQLQESGPGLVKPSETLSLTCTVSGGSVSSGSYYWSWIRQPPGKGLEWIGYIYYSGSTNYNPSLKSRVTISVDTSKNQFSLKLSSVTAADTAVYYCARNPISIPAFDIWGQGTMVTVSSGGSGGSGGSGGSGGSGGSQPVLTQPPSVSVAPGKTARITCGGNNIGSKSVHWYQQKPGQAPVLVIYYDSDRPSGIPERFSGSNSGNTATLTISRVEAGDEADYYCQVWDTSSDHVLFGGGTKLTVL", "light": "SYVLTQPSSVSVAPGQTATISCGGHNIGSKNVHWYQQRPGQSPVLVIYQDNKRPSGIPERFSGSNSGNTATLTISGTQAMDEADYYCQVWDNYSVLFGGGTKLTVLGQPKAAPSVTLFPPSSEELQANKATLVCLISDFYPGAVTVAWKADSSPVKAGVETTTPSKQSNNKYAASSYLSLTPEQWKSHRSYSCQVTHEGSTVEKTVAPTECS", "notes": "Tetravalent, bispecific: anti-CD16A Fab arms, silenced human IgG1 Fc, anti-EGFR scFv fused C-terminally to CH3; also called EGFR/CD16A scFv-IgAb; scFv-IgAb_2"}}, "key": {"EGFR-antigen (ELISA)": {"target": "T1, EGFR-antigen (ELISA)", "T1 construct": "also called EGFR-Fc", "test": "ELISA, coated EGFR-Fc antigen, tandem diabody titrated (His-tagged analyte, Penta-HIS-HRP per paragraph 126)", "experimental": "(§1) 96-well ELISA plates (Immuno MaxiSorp; Nunc) were coated overnight at 4° C. with recombinant antigen or antibodies in 100 mM Carbonate-bicarbonate buffer. […] After a blocking step with 3% (w/v) skim milk powder (Merck) dissolved in PBS, serial dilutions of the different antibodies or soluble antigens in PBS containing 0.3% (w/v) skim milk powder were incubated on the plates for 1.5 h at room temperature. After washing three times with 300 μL per well of PBS containing 0.1% (v/v) Tween 20, plates were incubated with detection antibodies for 1 h at room temperature. For the detection of His-tagged analytes, Penta-HIS-HRP (Qiagen) was used at 1:3000 dilution. […] After washing three times with 300 μL per well of PBS containing 0.1% (v/v) Tween 20, plates were incubated with Tetramethylbenzidine (TMB) substrate (Seramun) until colour development was clearly visible. The reaction was stopped through the addition of 100 μL per well of 0.5 M H₂SO₄. The absorbance was measured at 450 nm using a multilabel plate reader (Victor, Perkin Elmer)."}, "[1]": {"target": "T2, CD16A on primary human NK-cells (human, UniProt P08637 17-254)", "T2 construct": "whole, on cells; also called FcγRIIIA", "test": "flow cytometry on primary human NK-cells, 37°C, without IgG; mean of 2 experiments", "experimental": "(§2) After the last staining step, the cells were washed again and resuspended in 0.2 mL of FACS buffer containing 2 μg/mL propidium iodide (PI) (Sigma, cat.: P4170) in order to exclude dead cells. The fluorescence of 2-5×10³ living cells was measured using a Millipore Guava EasyCyte flow cytometer (Merck Millipore, Schwalbach, Germany). Mean fluorescence intensities of the cell samples were calculated using Incyte software (Merck Millipore, Schwalbach, Germany). After subtracting the fluorescence intensity values of the cells stained with the secondary and tertiary reagents alone, the values were used for non-linear regression analysis using the GraphPad Prism software (GraphPad Prism version 6.00 for Windows, GraphPad Software, La Jolla Calif. USA). For the calculation of KD, the equation for one-site-binding (hyperbola) was used.\n(§3) To assess the impact of physiological concentrations of human IgG on the binding capacity of bispecific EGFR/CD16A antigen-binding proteins, binding assays with several bispecific EGFR/CD16A antigen-binding proteins on primary human NK-cells were performed in presence or absence of 10 mg/mL polyclonal human IgG as exemplarily shown in FIG. 10."}, "human EGFR on cells [2]": {"target": "T3, human EGFR on cells (human, UniProt P00533 25-1210)", "T3 construct": "whole, on cells; also called EGFR+ CHO cells", "test": "flow cytometry on EGFR-expressing A-431 cells, 37° C."}, "[3]": {"target": "T4, Cynomolgus FcRn (FCGRT/B2M) (cynomolgus, UniProt Q8SPV9 24-297; Q8SPW0 21-119, biotin-labelled (Avi-Tag))", "T4 construct": "Purchased; also called FcRn (FCGRT/B2M), Avi-Tag, Biotin-Labeled, (Cynomolgus) Acro Cat #FCM-C82W5", "T4 sequence (Q8SPV9 24-297 limits assumed, chain 1 of 2)": "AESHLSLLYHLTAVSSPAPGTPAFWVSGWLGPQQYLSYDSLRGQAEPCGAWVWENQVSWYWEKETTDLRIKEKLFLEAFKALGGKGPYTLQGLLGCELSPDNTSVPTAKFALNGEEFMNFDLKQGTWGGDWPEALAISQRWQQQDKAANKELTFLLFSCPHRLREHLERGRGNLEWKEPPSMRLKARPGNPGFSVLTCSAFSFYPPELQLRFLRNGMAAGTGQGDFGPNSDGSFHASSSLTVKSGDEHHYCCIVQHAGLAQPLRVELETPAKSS", "T4 sequence (Q8SPW0 21-119 limits assumed, chain 2 of 2)": "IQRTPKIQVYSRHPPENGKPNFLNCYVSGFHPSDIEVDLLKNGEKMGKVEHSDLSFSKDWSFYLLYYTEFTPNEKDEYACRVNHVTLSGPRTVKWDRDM", "test": "SPR (Biacore T200), pH 6.0, biotinylated FcRn captured, multi cycle kinetics", "experimental": "(§4) Binding of EGFR/CD16A antigen-binding proteins to FcRn (human, cynomolgus, murine) was measured on a Biacore T200 Instrument at 25° C. using PBS-T buffer pH 6.0 as running buffer and for dilution (1×Gibco PBS, 0.005% Tween20, titrated to pH 6.0 using 4 M HCl). For this purpose, a Multi Cycle Kinetic experiments was performed using Biotin CAPture Kit (GE Healthcare). For activation of the sensor surface, Biotin CAPture reagent (GE Healthcare) was injected to Flow Cells Fc 1-4 (100 sec, 5 μL/min) resulting in a response of 2100 RU-2800 RU. Biotinylated FcRn of different species were injected to Flow Cell Fc 2 (5 μL/min) resulting in a response of about 8-15 RU. A dilution series of EGFR/CD16A antigen-binding proteins was in (pH 7.4) as running buffer and for dilution. […] Chip was regenerated using Regeneration solution (GE Healthcare) (10 μL/min, Flow cells 1-4, 120 sec). Sensorgrams are referenced by subtraction of zero concentration cycle and subtraction of signals in reference channel Fc 1 (Fc 2-1, Fc 3-1, Fc 4-1). […] Chip was regenerated using Regeneration solution (GE Healthcare) (10 μL/min, Flow cells 1-4, 120 sec). […] Binding kinetics were evaluated by fitting data to 1:1 Binding Model (Rmax and RI locally fitted) using Biacore T200 Evaluation Software."}, "Mouse FcRn (FCGRT/B2M) [4]": {"target": "T5, Mouse FcRn (FCGRT/B2M) (mouse, UniProt Q61559 22-297; P01887 21-119, biotin-labelled (Avi-Tag))", "T5 construct": "Purchased; also called murine FcRn; murine FcRn receptor", "T5 sequence (looked up)": "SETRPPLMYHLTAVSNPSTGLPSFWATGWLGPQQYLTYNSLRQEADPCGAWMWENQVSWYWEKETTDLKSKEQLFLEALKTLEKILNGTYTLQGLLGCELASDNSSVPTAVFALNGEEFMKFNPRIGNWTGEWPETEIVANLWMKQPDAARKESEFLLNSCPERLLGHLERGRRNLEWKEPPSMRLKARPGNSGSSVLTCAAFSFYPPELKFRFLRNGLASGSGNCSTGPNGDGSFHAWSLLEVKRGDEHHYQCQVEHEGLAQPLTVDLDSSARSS", "T5 sequence (b2m, looked up)": "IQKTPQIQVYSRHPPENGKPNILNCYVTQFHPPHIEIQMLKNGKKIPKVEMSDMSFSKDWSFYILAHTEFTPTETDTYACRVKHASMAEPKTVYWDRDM", "test": "SPR (Biacore T200), pH 6.0, biotinylated FcRn captured, multi cycle kinetics", "experimental": "as §4"}, "Human FcRn (FCGRT/B2M) [5]": {"target": "T6, Human FcRn (FCGRT/B2M) (human, UniProt P55899 24-297; P61769 21-119, biotin-labelled (site not stated))", "T6 construct": "Purchased; also called FcRn (FCGRT/B2M), His-Tag, Biotin-Labeled, (Human) HiP Cat #71283", "T6 sequence (P55899 24-297 limits assumed, chain 1 of 2)": "as the sequence (Q8SPV9 24-297 limits assumed, chain 1 of 2) above, with D39N, Q44E, S99G, G189S, N190S, M217L, T269S counted along it", "T6 sequence (P61769 21-119 limits assumed, chain 2 of 2)": "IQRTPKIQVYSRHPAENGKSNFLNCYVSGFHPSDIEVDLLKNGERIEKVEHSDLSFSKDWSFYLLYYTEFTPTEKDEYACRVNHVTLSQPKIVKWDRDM", "test": "SPR (Biacore T200), pH 6.0, biotinylated FcRn captured, multi cycle kinetics"}, "human EGFR on cells [6]": {"target": "T3, human EGFR on cells", "test": "flow cytometry on HCT-116 cells, 37°C; mean of 2 experiments", "experimental": "After the last staining step, the cells were washed again and resuspended in 0.2 mL of FACS buffer containing 2 μg/mL propidium iodide (PI) (Sigma, cat.: P4170) in order to exclude dead cells. The fluorescence of 2-5×10³ living cells was measured using a Millipore Guava EasyCyte flow cytometer (Merck Millipore, Schwalbach, Germany). Mean fluorescence intensities of the cell samples were calculated using the Incyte software (Merck Millipore, Schwalbach, Germany). After subtracting the fluorescence intensity values of the cells stained with the secondary and tertiary reagents alone, the values were used for non-linear regression analysis using the GraphPad Prism software (GraphPad Prism version 6.00 for Windows, GraphPad Software, La Jolla Calif. USA). For the calculation of KD, the equation for one-site-binding (hyperbola) was used."}, "[7]": {"target": "T2, CD16A on primary human NK-cells", "test": "flow cytometry on primary human NK-cells, 37°C, with 10 mg/mL polyclonal human IgG (Gammanorm); mean of 2 experiments", "experimental": "as §2, §3"}, "human EGFR on cells [8]": {"target": "T3, human EGFR on cells", "test": "cell-based or functional assay"}, "human EGFR on cells [9]": {"target": "T3, human EGFR on cells", "test": "cell-based or functional assay", "remark": "listed apart in the source"}, "EGFRvIII on CHO cells": {"target": "T7, EGFRvIII on CHO cells (human, UniProt P00533 25-1210)", "T7 construct": "whole, on cells; the exon 2-7 deletion must be applied; also called EGFRvIII+ CHO cells", "test": "flow cytometry on CHO cells expressing recombinant EGFRvIII, 37°C; apparent affinity", "experimental": "(§5) After last staining step, the cells were washed again and resuspended in 0.2 mL of FACS buffer containing 2 μg/mL propidium iodide (PI) (Sigma, cat.: P4170) in order to exclude dead cells. The fluorescence of 2-5×10³ living cells was measured using a Beckman-Coulter FC500 MPL flow cytometer using the MXP software (Beckman-Coulter, Krefeld, Germany) or a Millipore Guava EasyCyte flow cytometer (Merck Millipore, Schwalbach, Germany). Mean fluorescence intensities of the cell samples were calculated using CXP software (Beckman-Coulter) or Incyte software (Merck Millipore, Schwalbach, Germany). After subtracting the fluorescence intensity values of the cells stained with the secondary and tertiary reagents alone, the values were used for non-linear regression analysis using the GraphPad Prism software (GraphPad Prism version 6.00 for Windows, GraphPad Software, La Jolla Calif. USA). For the calculation of KD, the equation for one-site-binding (hyperbola) was used."}, "human EGFR on cells [10]": {"target": "T3, human EGFR on cells", "test": "flow cytometry on CHO cells expressing recombinant human EGFR, 37°C; apparent affinity", "experimental": "as §5"}, "CD16A-antigen (ELISA)": {"target": "T8, CD16A-antigen (ELISA)", "T8 construct": "also called CD16A-Fc", "test": "ELISA, coated CD16A-Fc antigen, tandem diabody titrated (His-tagged analyte, Penta-HIS-HRP per paragraph 126)", "experimental": "as §1"}, "human EGFR on cells [11]": {"target": "T3, human EGFR on cells", "test": "cell-based or functional assay", "remark": "listed apart in the source"}, "[12]": {"target": "T2, CD16A on primary human NK-cells", "test": "flow cytometry on primary human NK-cells, 37° C., with 10 mg/mL gammanorm (polyclonal human IgG)", "experimental": "as §2, §3"}, "huCD16A^RV-His": {"target": "T9, huCD16A^RV-His (human)", "T9 construct": "soluble, His-tagged; also called CD16-His antigen", "test": "ELISA, coated EGFR/CD16A scFv-IgAb, soluble huCD16A^RV-His titrated (the concentration axis is that of the antigen), Penta-HIS-HRP per paragraph 126", "experimental": "as §1"}, "[13]": {"target": "T4, Cynomolgus FcRn (FCGRT/B2M)", "test": "SPR (Biacore T200), pH 6.0, biotinylated FcRn captured, multi cycle kinetics, 1:1 model", "experimental": "as §4"}, "huCD16A": {"target": "huCD16A (human, UniProt P08637 17-208, limits assumed)", "test": "RIA assay on huCD16A with radioiodinated scFv-IgAB_02; RIA assay on huCD16A"}, "EGFR-mFc": {"target": "T10, EGFR-mFc", "T10 construct": "Coated at 2.5 µg/mL in ELISA; also called monomeric EGFR-mFc; EGFR-mFc antigen", "test": "ELISA, coated EGFR-mFc antigen, scFv-IgAb titrated, bound construct detected with biotinylated CD16-Fc and streptavidin-HRP", "experimental": "as §1"}, "human EGFR on cells [14]": {"target": "T3, human EGFR on cells", "test": "cell-based or functional assay", "remark": "listed apart in the source"}, "Mouse FcRn (FCGRT/B2M) [15]": {"target": "T5, Mouse FcRn (FCGRT/B2M)", "test": "SPR (Biacore T200), pH 6.0, biotinylated FcRn captured, multi cycle kinetics, 1:1 model", "experimental": "as §4"}, "Human FcRn (FCGRT/B2M) [16]": {"target": "T6, Human FcRn (FCGRT/B2M)", "test": "SPR (Biacore T200), pH 6.0, biotinylated FcRn captured, multi cycle kinetics, 1:1 model", "experimental": "as §4"}, "human EGFR on cells [17]": {"target": "T3, human EGFR on cells", "test": "saturation binding assay on A-431 cells with radioiodinated scFv-IgAB_02; saturation binding assay on A-431 cells"}}}
{"binder": "B1", "values": [{"measurement": "EC50 (read off the curve)", "setting": "EGFR-antigen (ELISA)", "value": "~0.02", "unit": "µg/mL"}, {"measurement": "Kd", "setting": "[1]", "value": 7.7, "unit": "nM"}, {"measurement": "EC50 (read off the curve)", "setting": "human EGFR on cells [2]", "value": "~2", "unit": "nM"}, {"measurement": "binding result", "setting": "[3]", "value": "no binding (tested: up to 3000 nM)"}, {"measurement": "binding result", "setting": "Mouse FcRn (FCGRT/B2M) [4]", "value": "no binding (tested: up to 3000 nM)"}, {"measurement": "binding result", "setting": "Human FcRn (FCGRT/B2M) [5]", "value": "no binding (tested: up to 3000 nM)"}, {"measurement": "Kd", "setting": "human EGFR on cells [6]", "value": 0.3, "unit": "nM"}, {"measurement": "Kd", "setting": "[7]", "value": 8.8, "unit": "nM"}, {"measurement": "EC50 [pM] mean, 4 h calcein-release cytotoxicity, A-431 target cells, human NK-cells E:T 5:1", "setting": "human EGFR on cells [8]", "value": 1.1, "unit": "pM"}, {"measurement": "EC50, inhibition of EGF-induced EGFR phosphorylation (phospho-EGFR ELISA, A-431 cells), Exp.1", "setting": "human EGFR on cells [9]", "value": "> 100", "unit": "µg/mL"}, {"measurement": "EC50, inhibition of EGF-induced EGFR phosphorylation (phospho-EGFR ELISA, A-431 cells), Exp.2", "setting": "human EGFR on cells [9]", "value": "> 100", "unit": "µg/mL"}, {"measurement": "Kd", "setting": "EGFRvIII on CHO cells", "value": 0.5, "unit": "nM"}, {"measurement": "Kd", "setting": "human EGFR on cells [10]", "value": 0.7, "unit": "nM"}, {"measurement": "EC50 (read off the curve)", "setting": "CD16A-antigen (ELISA)", "value": "~0.03", "unit": "µg/mL"}, {"measurement": "EC50 [pM] mean, 4 h calcein-release cytotoxicity, HCT-116 target cells, human NK-cells E:T 5:1", "setting": "human EGFR on cells [11]", "value": 1.5, "unit": "pM"}, {"measurement": "EC50 (read off the curve)", "setting": "[12]", "value": "~10", "unit": "nM"}]}
{"binder": "B2", "values": [{"measurement": "Kd", "setting": "[1]", "value": 8, "unit": "nM"}, {"measurement": "EC50 (read off the curve)", "setting": "huCD16A^RV-His", "value": "~1", "unit": "nM"}, {"measurement": "EC50 (read off the curve)", "setting": "human EGFR on cells [2]", "value": "~2", "unit": "nM"}, {"measurement": "Kd", "setting": "[7]", "value": 13.1, "unit": "nM"}, {"measurement": "Kd", "setting": "[13]", "value": 842, "unit": "nM"}, {"measurement": "Kd", "setting": "huCD16A", "value": 0.729, "unit": "nM"}, {"measurement": "EC50 [pM] mean, 4 h calcein-release cytotoxicity, A-431 target cells, human NK-cells E:T 5:1", "setting": "human EGFR on cells [8]", "value": 2.1, "unit": "pM"}, {"measurement": "EC50 (read off the curve)", "setting": "EGFR-mFc", "value": "~0.02", "unit": "µg/mL"}, {"measurement": "EC50 [µg/mL] on A-431 cells, inhibition of EGF-stimulated EGFR phosphorylation (phospho-EGFR ELISA)", "setting": "human EGFR on cells [14]", "value": 1520, "unit": "µg/mL"}, {"measurement": "EC50 [µg/mL] on A-549 cells, inhibition of EGF-stimulated EGFR phosphorylation (phospho-EGFR ELISA)", "setting": "human EGFR on cells [14]", "value": 478, "unit": "µg/mL"}, {"measurement": "Kd", "setting": "Mouse FcRn (FCGRT/B2M) [15]", "value": 180, "unit": "nM"}, {"measurement": "Kd", "setting": "Human FcRn (FCGRT/B2M) [16]", "value": 430, "unit": "nM"}, {"measurement": "Kd", "setting": "human EGFR on cells [17]", "value": 6.98, "unit": "nM"}, {"measurement": "EC50 [pM] mean, 4 h calcein-release cytotoxicity, HCT-116 target cells, human NK-cells E:T 5:1", "setting": "human EGFR on cells [11]", "value": 4.3, "unit": "pM"}]}
